Experimental findings from PMC3144224, “Control of Gene Expression by the Retinoic Acid-Related Orphan Receptor Alpha in HepG2 Human Hepatoma Cells” are described below.

The data set has as its target T1, RORα1 (NR1F1) (human, UniProt P35398 1-523).
T1 sequence: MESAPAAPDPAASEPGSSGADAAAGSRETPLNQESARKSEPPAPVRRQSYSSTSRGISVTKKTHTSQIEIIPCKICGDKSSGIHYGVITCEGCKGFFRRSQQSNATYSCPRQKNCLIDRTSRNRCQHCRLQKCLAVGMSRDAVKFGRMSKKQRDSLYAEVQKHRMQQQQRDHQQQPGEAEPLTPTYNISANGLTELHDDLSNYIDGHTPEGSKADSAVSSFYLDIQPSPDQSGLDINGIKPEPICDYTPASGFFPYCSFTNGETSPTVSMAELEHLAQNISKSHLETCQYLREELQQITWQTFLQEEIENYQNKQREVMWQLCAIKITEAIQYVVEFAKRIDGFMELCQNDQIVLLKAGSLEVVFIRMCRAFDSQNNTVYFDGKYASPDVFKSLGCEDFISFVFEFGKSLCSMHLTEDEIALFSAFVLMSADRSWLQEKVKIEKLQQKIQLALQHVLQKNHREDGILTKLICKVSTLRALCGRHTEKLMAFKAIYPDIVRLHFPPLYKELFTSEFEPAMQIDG
Nature of the data set: EMSA; 15 mM Tris-HCl pH 7.5, 50 mM KCl, 15 mM NaCl, 1 mM MgCl2, 0.03 mM EDTA, 1 mM DTT, 7% glycerol, 50 ng poly(dI-dC), 50 ng unspecific ss oligonucleotides, 0.15 ng. The settings on record: protein: ivt; label: 32P (Klenow fill-in, [α-32P]-dATP) when used as probe.

B1: SPARC-RORE (dsDNA)
DNA 1: CGGTAGGCTGTTCTGGGTCATCCCTCCAGG
DNA 2: ACGTCCTGGAGGGATGACCCAGAACAGCCT
For B1, the binding result is listed as “binds”.
